Ratio to parent data for 5 variants are collected here from article PMC5019376.

B1: TIR1 (wild type, epitope-tagged, expressed in Nicotiana) [Arabidopsis] / GST-IAA3 [Arabidopsis] (parent)
chain 1: MQKRIALSFPEEVLEHVFSFIQLDKDRNSVSLVCKSWYEIERWCRRKVFIGNCYAVSPATVIRRFPKVRSVELKGKPHFADFNLVPDGWGGYVYPWIEAMSSSYTWLEEIRLKRMVVTDDCLELIAKSFKNFKVLVLSSCEGFSTDGLAAIAATCRNLKELDLRESDVDDVSGHWLSHFPDTYTSLVSLNISCLASEVSFSALERLVTRCPNLKSLKLNRAVPLEKLATLLQRAPQLEELGTGGYTAEVRPDVYSGLSVALSGCKELRCLSGFWDAVPAYLPAVYSVCSRLTTLNLSYATVQSYDLVKLLCQCPKLQRLWVLDYIEDAGLEVLASTCKDLRELRVFPSEPFVMEPNVALTEQGLVSVSMGCPKLESVLYFCRQMTNAALITIARNRPNMTRFRLCIIEPKAPDYLTLEPLDIGFGAIVEHCKDLRRLSLSGLLTDKVFEYIGTYAKKMEMLSVAFAGDSDLGMHHVLSGCDSLRKLEIRDCPFGDKALLANASKLETMRSLWMSSCSVSFGACKLLGQKMPKLNVEVIDERGAPDSRPESCPVERVFIYRTVAGPRFDMPGFVWNMDQDSTMRFSRQIITTNGL
chain 2: MDEFVNLKETELRLGLPGTDNVCEAKERVSCCNNNNKRVLSTDTEKEIESSSRKTETSPPRKAQIVGWPPVRSYRKNNIQSKKNESEHEGQGIYVKVSMDGAPYLRKIDLSCYKGYSELLKALEVMFKFSVGEYFERDGYKGSDFVPTYEDKDGDWMLIGDVPWEMFICTCKRLRIMKGSEAKGLGCGV

In this assay the parent is B1. The assay is described as follows: pull-down (semi in vitro, GST-IAA3 with Nicotiana cell extracts, anti-HA blot). As to conditions: 10 µM 2,4-D.
Consider chain 1 MQKRIALSFPEEVLEHVFSFIQLDKDRNSVSLVCKSWYEIERWCRRKVFIGNCYAVSPATVIRRFPKVRSVELKGKPHFADFNLVPDGWGGYVYPWIEAMSSSYTWLEEIRLKRMVVTDDCLELIAKSFKNFKVLVLSSCEGFSTDGLAAAAATCRNLKELDLRESDVDDVSGHWLSHFPDTYTSLVSLNISCLASEVSFSALERLVTRCPNLKSLKLNRAVPLEKLATLLQRAPQLEELGTGGYTAEVRPDVYSGLSVALSGCKELRCLSGFWDAVPAYLPAVYSVCSRLTTLNLSYATVQSYDLVKLLCQCPKLQRLWVLDYIEDAGLEVLASTCKDLRELRVFPSEPFVMEPNVALTEQGLVSVSMGCPKLESVLYFCRQMTNAALITIARNRPNMTRFRLCIIEPKAPDYLTLEPLDIGFGAIVEHCKDLRRLSLSGLLTDKVFEYIGTYAKKMEMLSVAFAGDSDLGMHHVLSGCDSLRKLEIRDCPFGDKALLANASKLETMRSLWMSSCSVSFGACKLLGQKMPKLNVEVIDERGAPDSRPESCPVERVFIYRTVAGPRFDMPGFVWNMDQDSTMRFSRQIITTNGL [chain 1 I151A], for which the ratio to parent came out at 0.46.
Regarding chain 1 MQKRIALSFPEEVLEHVFSFIQLDKDRNSVSLVCKSWYEIERWCRRKVFIGNCYAVSPATVIRRFPKVRSVELKGKPHFADFNLVPDGWGGYVYPWIEAMSSSYTWLEEIRLKRMVATDDCLELIAKSFKNFKVLVLSSCEGFSTDGLAAIAATCRNLKELDLRESDVDDVSGHWLSHFPDTYTSLVSLNISCLASEVSFSALERLVTRCPNLKSLKLNRAVPLEKLATLLQRAPQLEELGTGGYTAEVRPDVYSGLSVALSGCKELRCLSGFWDAVPAYLPAVYSVCSRLTTLNLSYATVQSYDLVKLLCQCPKLQRLWVLDYIEDAGLEVLASTCKDLRELRVFPSEPFVMEPNVALTEQGLVSVSMGCPKLESVLYFCRQMTNAALITIARNRPNMTRFRLCIIEPKAPDYLTLEPLDIGFGAIVEHCKDLRRLSLSGLLTDKVFEYIGTYAKKMEMLSVAFAGDSDLGMHHVLSGCDSLRKLEIRDCPFGDKALLANASKLETMRSLWMSSCSVSFGACKLLGQKMPKLNVEVIDERGAPDSRPESCPVERVFIYRTVAGPRFDMPGFVWNMDQDSTMRFSRQIITTNGL [chain 1 V117A], the ratio to parent is 0.44.
Consider chain 1 MQKRIALSFPEEVLEHVFSFIQLDKDRNSVSLVCKSWYEIERWCRRKVFIGNCYAVSPATVIRRFPKVRSVELKGKPHFADFNLVPDGWGGYVYPWIEAMSSSYTWLEEIRLKRMVVTDDCLELIAKSFKNFKVLVLSSCEAFSTDGLAAIAATCRNLKELDLRESDVDDVSGHWLSHFPDTYTSLVSLNISCLASEVSFSALERLVTRCPNLKSLKLNRAVPLEKLATLLQRAPQLEELGTGGYTAEVRPDVYSGLSVALSGCKELRCLSGFWDAVPAYLPAVYSVCSRLTTLNLSYATVQSYDLVKLLCQCPKLQRLWVLDYIEDAGLEVLASTCKDLRELRVFPSEPFVMEPNVALTEQGLVSVSMGCPKLESVLYFCRQMTNAALITIARNRPNMTRFRLCIIEPKAPDYLTLEPLDIGFGAIVEHCKDLRRLSLSGLLTDKVFEYIGTYAKKMEMLSVAFAGDSDLGMHHVLSGCDSLRKLEIRDCPFGDKALLANASKLETMRSLWMSSCSVSFGACKLLGQKMPKLNVEVIDERGAPDSRPESCPVERVFIYRTVAGPRFDMPGFVWNMDQDSTMRFSRQIITTNGL [chain 1 G142A], for which the ratio to parent turned out to be 0.45.
As for chain 1 MQKRIALSFPEEVLEHVFSFIQLDKDRNSVSLVCKSWYEIERWCRRKVFIGNCYAVSPATVIRRFPKVRSVELKGKPHFADFNLVPDGWGGYVYPWIEAMSSSYTWLEEIRLKRMVVTDDCLELIAKSFKNFKVLVLSSAEGFSTDGLAAIAATCRNLKELDLRESDVDDVSGHWLSHFPDTYTSLVSLNISCLASEVSFSALERLVTRCPNLKSLKLNRAVPLEKLATLLQRAPQLEELGTGGYTAEVRPDVYSGLSVALSGCKELRCLSGFWDAVPAYLPAVYSVCSRLTTLNLSYATVQSYDLVKLLCQCPKLQRLWVLDYIEDAGLEVLASTCKDLRELRVFPSEPFVMEPNVALTEQGLVSVSMGCPKLESVLYFCRQMTNAALITIARNRPNMTRFRLCIIEPKAPDYLTLEPLDIGFGAIVEHCKDLRRLSLSGLLTDKVFEYIGTYAKKMEMLSVAFAGDSDLGMHHVLSGCDSLRKLEIRDCPFGDKALLANASKLETMRSLWMSSCSVSFGACKLLGQKMPKLNVEVIDERGAPDSRPESCPVERVFIYRTVAGPRFDMPGFVWNMDQDSTMRFSRQIITTNGL [chain 1 C140A], the ratio to parent worked out at 0.62.
As for chain 1 MQKRIALSFPEEVLEHVFSFIQLDKDRNSVSLVCKSWYEIERWCRRKVFIGNCYAVSPATVIRRFPKVRSVELKGKPHFADFNLVPDGWGGYVYPWIEAMSSSYTWLEEIRLKRMVVTDDCLELIAKSFKNFKVLVLSSCEGASTDGLAAIAATCRNLKELDLRESDVDDVSGHWLSHFPDTYTSLVSLNISCLASEVSFSALERLVTRCPNLKSLKLNRAVPLEKLATLLQRAPQLEELGTGGYTAEVRPDVYSGLSVALSGCKELRCLSGFWDAVPAYLPAVYSVCSRLTTLNLSYATVQSYDLVKLLCQCPKLQRLWVLDYIEDAGLEVLASTCKDLRELRVFPSEPFVMEPNVALTEQGLVSVSMGCPKLESVLYFCRQMTNAALITIARNRPNMTRFRLCIIEPKAPDYLTLEPLDIGFGAIVEHCKDLRRLSLSGLLTDKVFEYIGTYAKKMEMLSVAFAGDSDLGMHHVLSGCDSLRKLEIRDCPFGDKALLANASKLETMRSLWMSSCSVSFGACKLLGQKMPKLNVEVIDERGAPDSRPESCPVERVFIYRTVAGPRFDMPGFVWNMDQDSTMRFSRQIITTNGL [chain 1 F143A], the figure is 0.5.
